Test [1] addresses T1, Recombinant 6x his tagged full-length LSD2 (human, UniProt Q8NB78 1-822).
T1 construct: range 1-822; Expressed in and purified from Sf9 insect cells; also called His-LSD2; full-length His-LSD2
T1 sequence: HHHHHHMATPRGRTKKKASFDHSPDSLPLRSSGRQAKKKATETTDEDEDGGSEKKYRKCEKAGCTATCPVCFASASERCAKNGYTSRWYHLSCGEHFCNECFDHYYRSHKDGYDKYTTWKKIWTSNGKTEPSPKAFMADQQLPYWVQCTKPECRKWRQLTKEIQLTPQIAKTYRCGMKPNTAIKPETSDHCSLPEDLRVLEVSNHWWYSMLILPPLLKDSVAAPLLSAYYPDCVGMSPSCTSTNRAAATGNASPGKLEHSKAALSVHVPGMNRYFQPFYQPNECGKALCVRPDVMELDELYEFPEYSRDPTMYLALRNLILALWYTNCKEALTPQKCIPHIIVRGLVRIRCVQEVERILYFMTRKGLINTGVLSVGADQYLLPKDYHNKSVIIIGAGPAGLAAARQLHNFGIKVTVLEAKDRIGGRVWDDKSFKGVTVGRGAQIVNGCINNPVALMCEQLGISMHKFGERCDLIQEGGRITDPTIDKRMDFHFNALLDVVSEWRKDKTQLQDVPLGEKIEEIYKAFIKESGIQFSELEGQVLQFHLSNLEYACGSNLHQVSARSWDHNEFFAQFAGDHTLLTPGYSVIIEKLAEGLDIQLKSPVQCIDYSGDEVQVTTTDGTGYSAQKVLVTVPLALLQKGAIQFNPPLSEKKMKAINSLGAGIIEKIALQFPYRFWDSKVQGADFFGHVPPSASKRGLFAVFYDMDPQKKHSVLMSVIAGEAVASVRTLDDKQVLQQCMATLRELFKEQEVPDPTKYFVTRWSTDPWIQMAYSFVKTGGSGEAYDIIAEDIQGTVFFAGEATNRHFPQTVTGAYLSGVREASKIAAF
As to the kind of experiment: GST pulldown of His-LSD2, SDS-PAGE, Coomassie. On the procedure:
FIG. 5B discloses SEQ ID NO: 51. […] FIG. 5D discloses SEQ ID NOS 63 and 76, respectively, in order of appearance. […] See also FIG. 6G.
(§1) After washed 4 times with same buffer at 4° C., glutathione agarose beads were boiled in 1× SDS sample loading buffer. Elute was resolved on a 15% SDS-PAGE gel and stained by coomassie blue.

In test [2] the target is T1, Recombinant 6x his tagged full-length …. The test is described as follows: GST pulldown of purified His-LSD2, SDS-PAGE, Coomassie. On the procedure: DH, dehydrogenase domain; black box, AT-hook motif. FIG. 2A discloses “PWWP” as SEQ ID NO: 63. […] Molecular masses corresponding to mono- and di-methylated H3K4 peptides (residues 1-21) are denoted as me1 and me2, respectively.
as §1

Test [3] has as its target Endogenous LSD1 (HeLa cells) (human, UniProt O60341 1-852). As to the kind of experiment: tandem affinity purification, immunoblot with anti-LSD1. A general note: Immunoblotting shows a protein as a band on a membrane.
The target in test [4] is T2, Endogenous LSD2 (human cells) (human, UniProt Q8NB78 1-822, limits assumed).
T2 construct: also called KDM1b; AOF1
T2 sequence (looked up): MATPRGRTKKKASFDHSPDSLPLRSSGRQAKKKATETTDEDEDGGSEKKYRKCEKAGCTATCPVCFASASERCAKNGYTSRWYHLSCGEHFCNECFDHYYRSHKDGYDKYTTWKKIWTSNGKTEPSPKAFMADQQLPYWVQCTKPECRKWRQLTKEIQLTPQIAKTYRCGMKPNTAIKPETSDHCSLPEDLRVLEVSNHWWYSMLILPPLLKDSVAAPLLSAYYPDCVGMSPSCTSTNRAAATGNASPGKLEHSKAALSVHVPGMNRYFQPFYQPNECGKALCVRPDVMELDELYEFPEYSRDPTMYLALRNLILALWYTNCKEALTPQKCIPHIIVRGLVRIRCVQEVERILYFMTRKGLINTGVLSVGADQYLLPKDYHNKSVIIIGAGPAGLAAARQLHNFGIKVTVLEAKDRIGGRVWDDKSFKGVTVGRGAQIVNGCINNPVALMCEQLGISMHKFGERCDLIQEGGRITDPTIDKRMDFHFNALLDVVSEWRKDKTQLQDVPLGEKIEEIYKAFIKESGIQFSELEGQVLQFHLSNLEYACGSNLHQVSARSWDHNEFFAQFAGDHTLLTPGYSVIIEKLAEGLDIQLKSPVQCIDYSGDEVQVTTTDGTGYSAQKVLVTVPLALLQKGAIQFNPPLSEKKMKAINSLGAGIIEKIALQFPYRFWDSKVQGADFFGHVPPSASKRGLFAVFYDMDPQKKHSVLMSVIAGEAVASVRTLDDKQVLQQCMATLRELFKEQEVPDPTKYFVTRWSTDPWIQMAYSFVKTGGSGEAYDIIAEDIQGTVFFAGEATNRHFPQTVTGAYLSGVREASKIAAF
The test is described as follows: tandem affinity purification from HeLa, immunoblot with anti-LSD2.

For test [5], the target named is FLAG-HA tagged LSD1 bait protein (stably expressed in HeLa, tandem affinity purified) (human, UniProt O60341 1-852). The test is described as follows: tandem affinity purification, immunoblot with anti-NPAC.
In test [6] the target is T3, Human LSD2 (residues 51-822) (human, UniProt Q8NB78 51-822).
T3 construct: range 51-822; Expressed in Sf9 cells with a His6 tag removed by 3C protease; used for ITC; also called KDM1b; AOF1
T3 sequence (looked up): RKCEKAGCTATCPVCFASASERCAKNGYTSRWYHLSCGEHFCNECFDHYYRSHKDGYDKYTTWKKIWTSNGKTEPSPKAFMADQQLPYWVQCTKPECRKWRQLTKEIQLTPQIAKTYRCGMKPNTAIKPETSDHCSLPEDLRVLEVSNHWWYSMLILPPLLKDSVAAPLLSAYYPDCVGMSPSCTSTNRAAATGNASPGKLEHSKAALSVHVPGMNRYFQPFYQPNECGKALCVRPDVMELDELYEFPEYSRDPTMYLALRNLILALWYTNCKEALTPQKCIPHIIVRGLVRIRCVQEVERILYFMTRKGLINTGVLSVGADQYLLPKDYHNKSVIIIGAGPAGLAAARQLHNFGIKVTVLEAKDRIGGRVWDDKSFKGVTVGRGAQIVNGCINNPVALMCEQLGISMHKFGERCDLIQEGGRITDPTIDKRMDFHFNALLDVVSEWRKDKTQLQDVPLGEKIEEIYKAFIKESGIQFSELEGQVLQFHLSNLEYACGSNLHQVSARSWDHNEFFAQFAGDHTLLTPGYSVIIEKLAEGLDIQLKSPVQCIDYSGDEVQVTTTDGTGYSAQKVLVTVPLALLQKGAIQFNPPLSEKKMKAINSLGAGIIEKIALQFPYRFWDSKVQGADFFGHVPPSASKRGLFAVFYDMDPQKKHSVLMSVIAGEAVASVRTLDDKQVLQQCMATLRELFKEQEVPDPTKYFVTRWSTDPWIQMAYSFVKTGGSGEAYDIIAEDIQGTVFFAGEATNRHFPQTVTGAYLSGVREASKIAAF
As to the kind of experiment: ITC, 15 °C; 3 mM peptide injected into 0.2 mM LSD2 (residues 51-822). Here is the method:
Isothermal Titration Calorimetry (ITC) binding study. […] All proteins and peptides were prepared in 10 mM HEPES, pH 8.0, and 0.1 M NaCl. The data were fitted by software Origin 7.0.
For orientation: Isothermal titration calorimetry measures the heat released or taken up as one component is titrated into another.

Experimental findings from patent US20150329644A1 (BRIGHAM AND WOMEN S HOSPITAL, published 2015) are described below.

Ends that are not written are not given here.

B1: GST-NP.d9 (NP.d3, NPAC residues 152-252, with deletion of amino acids 214-222) (other, not shown: a dimerising Fc or GST; small tags and cut ends)
chain: SERGSKSPLKRAQEQSPRKRGRPPKDEKDLTIPESSTVKGMMAGPMAAFKWQPTASEPVKDASQTEKPAVCYQAITKKLKICEEETGSTSIQ
notes: The flanking ranges are derived from that
As to B1, in test [1], the binding result was “no binding”.

B2: GST-NP.d5 (NPAC residues 262-553, dehydrogenase domain) (other)
chain: SITPTDKKIGFLGLGLMGSGIVSNLLKMGHTVTVWNRTAEKCDLFIQEGARLGRTPAEVVSTCDITFACVSDPKAAKDLVLGPSGVLQGIRPGKCYVDMSTVDADTVTELAQVIVSRGGRFLEAPVSGNQQLSNDGMLVILAAGDRGLYEDCSSCFQAMGKTSFFLGEVGNAAKMMLIVNMVQGSFMATIAEGLTLAHVTGQSQQTLLDILNQGQLASIFLDQKCQNILQGNFKPDFYLKYIQKDLRLAIALGDAVNHPTPMAAAANEVYKRAKALDQSDNDMSAVYRAYIH
notes: not shown: glutathione S-transferase (GST) tag from vector pGEX-4T-1
For B2, the binding result in test [2] is “no binding”.

B3: GST-NP.d1 (NPAC residues 1-150, PWWP domain) (other)
chain: MAAVSLRLGDLVWGKLGRYPPWPGKIVNPPKDLKKPRGKKCFFVKFFGTEDHAWIKVEQLKPYHAHKEEMIKINKGKRFQQAVDAVEEFLRRAKGKDQTSSHNSSDDKNRRNSSEERSRPNSGDEKRKLSLSEGKVKKNMGEGKKRVSSG
notes: as for B2
In the case of B3, the binding result in test [2] was “no binding”.

B4: FLAG-HA tagged NPAC (N-terminal FLAG-HA, stably expressed in HeLa, tandem affinity purified) (other)
chain: MAAVSLRLGDLVWGKLGRYPPWPGKIVNPPKDLKKPRGKKCFFVKFFGTEDHAWIKVEQLKPYHAHKEEMIKINKGKRFQQAVDAVEEFLRRAKGKDQTSSHNSSDDKNRRNSSEERSRPNSGDEKRKLSLSEGKVKKNMGEGKKRVSSGSSERGSKSPLKRAQEQSPRKRGRPPKDEKDLTIPESSTVKGMMAGPMAAFKWQPTASEPVKDADPHFHHFLLSQTEKPAVCYQAITKKLKICEEETGSTSIQAADSTAVNGSITPTDKKIGFLGLGLMGSGIVSNLLKMGHTVTVWNRTAEKCDLFIQEGARLGRTPAEVVSTCDITFACVSDPKAAKDLVLGPSGVLQGIRPGKCYVDMSTVDADTVTELAQVIVSRGGRFLEAPVSGNQQLSNDGMLVILAAGDRGLYEDCSSCFQAMGKTSFFLGEVGNAAKMMLIVNMVQGSFMATIAEGLTLAHVTGQSQQTLLDILNQGQLASIFLDQKCQNILQGNFKPDFYLKYIQKDLRLAIALGDAVNHPTPMAAAANEVYKRAKALDQSDNDMSAVYRAYIH
notes: Bait of the purified NPAC complex; also called FLAG:HA-NPAC; NPAC complex; not shown: N-terminal FLAG-HA tag from pOZ-N vector
As for B4, the binding result is “no binding” in test [3] and “binds” in test [4].

B5: Endogenous NPAC (human cells) (other)
chain: B4 chain
notes: Endogenous protein of HeLa cells, detected by immunoblot in purified complexes; also called GLYR1; NP60
As to B5, in test [5], the binding result is given as “no binding”.

B6: GST-NP.d6 (NPAC with deletion of the linker region, residues 152-252) (other, not shown: a dimerising Fc or GST; small tags and cut ends)
chain: MAAVSLRLGDLVWGKLGRYPPWPGKIVNPPKDLKKPRGKKCFFVKFFGTEDHAWIKVEQLKPYHAHKEEMIKINKGKRFQQAVDAVEEFLRRAKGKDQTSSHNSSDDKNRRNSSEERSRPNSGDEKRKLSLSEGKVKKNMGEGKKRVSSGSAADSTAVNGSITPTDKKIGFLGLGLMGSGIVSNLLKMGHTVTVWNRTAEKCDLFIQEGARLGRTPAEVVSTCDITFACVSDPKAAKDLVLGPSGVLQGIRPGKCYVDMSTVDADTVTELAQVIVSRGGRFLEAPVSGNQQLSNDGMLVILAAGDRGLYEDCSSCFQAMGKTSFFLGEVGNAAKMMLIVNMVQGSFMATIAEGLTLAHVTGQSQQTLLDILNQGQLASIFLDQKCQNILQGNFKPDFYLKYIQKDLRLAIALGDAVNHPTPMAAAANEVYKRAKALDQSDNDMSAVYRAYIH
notes: as for B1
Regarding B6, the binding result in test [2] was “no binding”.

B7: GST-NP.d7 (NPAC residues 152-186, containing the AT hook motif) (other)
chain: SERGSKSPLKRAQEQSPRKRGRPPKDEKDLTIPES
modifications: also: GST tag fusion, tag and linker sequence not given here
notes: as for B2
For the molecule B7, in test [1], the binding result is “no binding”.

B8: NPAC.214-225.M8 (D214A/H216A/F217A) (peptide)
peptide: APAAHHFLLSQT
notes: Synthetic dodecapeptide; also called D214A/H216A/F217A triple mutant peptide
Regarding B8, in test [6], the “Δ H” value was -8.29 kcal/mol and the “Δ S” value is -1.3 cal/mol/deg.

The term Kd denotes the constant that tells how readily two partners part at equilibrium. As to DPHFHHFLLSQT (also called wild-type NPAC peptide) [NPAC.214-225.WT (wild-type NPAC dodecapeptide, residues 214-225)], in test [6], the Binding ratio amounted to 1.06; the affinity, expressed as Kd, was 920 nM; the “Δ H” value is -8.48 kcal/mol; the “Δ S” value is -1.82 cal/mol/deg.

B9: NPAC.214-225.M6 (F217A) (peptide)
peptide: DPHAHHFLLSQT
notes: Synthetic dodecapeptide; also called NP.M6
For B9, in test [6], the Binding ratio turned out to be 1.1, the Kd came out at 930 nM, the “Δ H” value was -8.18 kcal/mol and the “Δ S” value is -0.783 cal/mol/deg.
